For orientation: Km means the concentration of substrate that gives half-maximal velocity.

Substrate in the data set: C[C@]12CC[C@@H]3c4ccc(O)cc4CC[C@H]3[C@@H]1CC[C@@H]2O[C@@H]1O[C@H](C(=O)O)[C@@H](O)[C@H](O)[C@H]1O
The data set can be described thus: TP_TRANSPORTER: uptake in bile canalicular membrane vesicles from SD rat. Format: functional, cell membranes, Sprague-Dawley, Bile canalicular membrane vesicle.

B1: ATP-binding cassette sub-family C member 2 (Rattus norvegicus) (protein)
chain: MDKFCNSTFWDLSLLESPEADLPLCFEQTVLVWIPLGFLWLLAPWQLYSVYRSRTKRSSITKFYLAKQVFVVFLLILAAIDLSLALTEDTGQATVPPVRYTNPILYLCTWLLVLAVQHSRQWCVRKNSWFLSLFWILSVLCGVFQFQTLIRALLKDSKSNMAYSYLFFVSYGFQIVLLILTAFSGPSDSTQTPSVTASFLSSITFSWYDRTVLKGYKHPLTLEDVWDIDEGFKTRSVTSKFEAAMTKDLQKARQAFQRRLQKSQRKPEATLHGLNKKQSQSQDVLVLEEAKKKSEKTTKDYPKSWLIKSLFKTFHVVILKSFILKLIHDLLVFLNPQLLKLLIGFVKSSNSYVWFGYICAILMFAVTLIQSFCLQSYFQHCFVLGMCVRTTVMSSIYKKALTLSNLARKQYTIGETVNLMSVDSQKLMDATNYMQLVWSSVIQITLSIFFLWRELGPSILAGVGVMVLLIPVNGVLATKIRNIQVQNMKNKDKRLKIMNEILSGIKILKYFAWEPSFQEQVQGIRKKELKNLLRFGQLQSLLIFILQITPILVSVVTFSVYVLVDSANVLNAEKAFTSITLFNILRFPLSMLPMVTSSILQASVSVDRLERYLGGDDLDTSAIRRVSNFDKAVKFSEASFTWDPDLEATIQDVNLDIKPGQLVAVVGTVGSGKSSLVSAMLGEMENVHGHITIQGSTAYVPQQSWIQNGTIKDNILFGSEYNEKKYQQVLKACALLPDLEILPGGDMAEIGEKGINLSGGQKQRVSLARAAYQDADIYILDDPLSAVDAHVGKHIFNKVVGPNGLLAGKTRIFVTHGIHFLPQVDEIVVLGKGTILEKGSYRDLLDKKGVFARNWKTFMKHSGPEGEATVNNDSEAEDDDDGLIPTMEEIPEDAASLAMRRENSLRRTLSRSSRSSSRRGKSLKNSLKIKNVNVLKEKEKEVEGQKLIKKEFVETGKVKFSIYLKYLQAVGWWSILFIILFYGLNNVAFIGSNLWLSAWTSDSDNLNGTNNSSSHRDMRIGVFGALGLAQGICLLISTLWSIYACRNASKALHGQLLTNILRAPMRFFDTTPTGRIVNRFSGDISTVDDLLPQTLRSWMMCFFGIAGTLVMICMATPVFAIIIIPLSILYISVQVFYVATSRQLRRLDSVTKSPIYSHFSETVTGLPIIRAFEHQQRFLAWNEKQIDINQKCVFSWITSNRWLAIRLELVGNLVVFCSALLLVIYRKTLTGDVVGFVLSNALNITQTLNWLVRMTSEAETNIVAVERISEYINVENEAPWVTDKRPPADWPRHGEIQFNNYQVRYRPELDLVLKGITCNIKSGEKVGVVGRTGAGKSSLTNCLFRILESAGGQIIIDGIDVASIGLHDLRERLTIIPQDPILFSGSLRMNLDPFNKYSDEEVWRALELAHLRSFVSGLQLGLLSEVTEGGDNLSIGQRQLLCLGRAVLRKSKILVLDEATAAVDLETDSLIQTTIRKEFSQCTVITIAHRLHTIMDSDKIMVLDNGKIVEYGSPEELLSNRGSFYLMAKEAGIENVNHTEL
Take B1: the Km is 75 µM.

(Values after ChEMBL document CHEMBL2073889, “ATP-dependent transport of beta-estradiol 17-(beta-D-glucuronide) in rat canalicular membrane vesicles” (Am J Physiol, 1996).)
